Assay results reported in US20180186877A1 (NATIONAL CEREBRAL AND CARDIOVASCULAR CENTER, published 2018).

Target: Epitope-tagged recombinant LOX-1 protein (NM002543, aa 61-273, 6xHis); pcDNA4, Igk secretion signal; secreted … (UniProt P78380 61-273)
Experiment: SPR (Biacore), FVa immobilised on the chip, LOX-1 0-400 nM flowed; equilibrium (Req) analysis
Description: Note that the Igκ secretion signal was obtained by pSecTag/FRT/V5-HisTOPO (Invitrogen). […] The surface plasmon resonance was performed using Biacore (manufactured by GE Healthcare, Inc.).

B1: Human Factor Va (HCVA-0110, Haematologic Technologies Inc.) (other)
H chain: AQLRQFYVAAQGISWSYRPEPTNSSLNLSVTSFKKIVYREYEPYFKKEKPQSTISGLLGPTLYAEVGDIIKVHFKNKADKPLSIHPQGIRYSKLSEGASYLDHTFPAEKMDDAVAPGREYTYEWSISEDSGPTHDDPPCLTHIYYSHENLIEDFNSGLIGPLLICKKGTLTEGGTQKTFDKQIVLLFAVFDESKSWSQSSSLMYTVNGYVNGTMPDITVCAHDHISWHLLGMSSGPELFSIHFNGQVLEQNHHKVSAITLVSATSTTANMTVGPEGKWIISSLTPKHLQAGMQAYIDIKNCPKKTRNLKKITREQRRHMKRWEYFIAAEEVIWDYAPVIPANMDKKYRSQHLDNFSNQIGKHYKKVMYTQYEDESFTKHTVNPNMKEDGILGPIIRAQVRDTLKIVFKNMASRPYSIYPHGVTFSPYEDEVNSSFTSGRNNTMIRAVQPGETYTYKWNILEFDEPTENDAQCLTRPYYSDVDIMRDIASGLIGLLLICKSRSLDRRGIQRAADIEQQAVFAVFDENKSWYLEDNINKFCENPDEVKRDDPKFYESNIMSTINGYVPESITTLGFCFDDTVQWHFCSVGTQNEILTIHFTGHSFIYGKRHEDTLTLFPMRGESVTVTMDNVGTWMLTSMNSSPRSKKLRLKFRDVKCIPDDDEDSYEIFEPPESTVMATRKMHDRLEPEDEESDADYDYQNRLAAALGIR
L chain: SNNGNRRNYYIAAEEISWDYSEFVQRETDIEDSDDIPEDTTYKKVVFRKYLDSTFTKRDPRGEYEEHLGILGPIIRAEVDDVIQVRFKNLASRPYSLHAHGLSYEKSSEGKTYEDDSPEWFKEDNAVQPNSSYTYVWHATERSGPESPGSACRAWAYYSAVNPEKDIHSGLIGPLLICQKGILHKDSNMPMDMREFVLLFMTFDEKKSWYYEKKSRSSWRLTSSEMKKSHEFHAINGMIYSLPGLKMYEQEWVRLHLLNIGGSQDIHVVHFHGQTLLENGNKQHQLGVWPLLPGSFKTLEMKASKPGWWLLNTEVGENQRAGMQTPFLIMDRDCRMPMGLSTGIISDSQIKASEFLGYWEPRLARLNNGGSYNAWSVEKLAAEFASKPWIQVDMQKEVIITGIQTQGAKHYLKSCYTTEFYVAYSSNQINWQIFKGNSTRNVMYFNGNSDASTIKENQFDPPIVARYIRISPTRAYNRPTLRLELQGCEVNGCSTPLGMENGKIENKQITASSFKKSWWGDYWEPFRARLNAQGRVNAWQAKANNNKQWLEIDLLKIKKITAIITQGCKSLSSEMYVKSYTIHYSEQGVEWKPYRLKSSMVDKIFEGNTNTKGHVKNFFNPPIISRFIRVIPKTWNQSIALRLELFGCDIY
modifications: Two-chain, plasma-derived glycoprotein. The H and L chains are held together non-covalently through Ca2+. Glycosylation and tyrosine sulfation are not carried by the letters.
notes: also called FVa
  Kd: 22.1 nM
